Data on 3 molecules can be found in patent US20060286584A1 (University of Texas, published 2006).

Series [1] concerns T1, GST-Yki fusion protein (GST with full length Yki).
T1 sequence: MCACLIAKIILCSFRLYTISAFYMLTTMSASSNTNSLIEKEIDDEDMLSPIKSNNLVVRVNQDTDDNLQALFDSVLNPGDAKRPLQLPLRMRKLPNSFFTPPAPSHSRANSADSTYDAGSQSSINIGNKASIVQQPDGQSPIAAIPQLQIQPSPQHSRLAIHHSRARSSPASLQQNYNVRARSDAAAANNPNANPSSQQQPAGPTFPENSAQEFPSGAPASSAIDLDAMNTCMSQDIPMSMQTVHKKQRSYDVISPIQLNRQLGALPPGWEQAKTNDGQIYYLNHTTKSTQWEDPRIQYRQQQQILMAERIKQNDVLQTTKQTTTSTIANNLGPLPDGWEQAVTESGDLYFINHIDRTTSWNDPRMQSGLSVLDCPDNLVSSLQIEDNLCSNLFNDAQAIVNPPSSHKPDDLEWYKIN

Series [2] addresses T2, V5-tagged Wts (Warts) (Drosophila, UniProt Q9VA38 1-1; Q9VA38 2-1105).
T2 construct: Expressed in S2 cells; in the kinase assay it was immunoprecipitated with anti-V5, alone or after co-expression with Hpo-Sav; also called Lats
T2 sequence: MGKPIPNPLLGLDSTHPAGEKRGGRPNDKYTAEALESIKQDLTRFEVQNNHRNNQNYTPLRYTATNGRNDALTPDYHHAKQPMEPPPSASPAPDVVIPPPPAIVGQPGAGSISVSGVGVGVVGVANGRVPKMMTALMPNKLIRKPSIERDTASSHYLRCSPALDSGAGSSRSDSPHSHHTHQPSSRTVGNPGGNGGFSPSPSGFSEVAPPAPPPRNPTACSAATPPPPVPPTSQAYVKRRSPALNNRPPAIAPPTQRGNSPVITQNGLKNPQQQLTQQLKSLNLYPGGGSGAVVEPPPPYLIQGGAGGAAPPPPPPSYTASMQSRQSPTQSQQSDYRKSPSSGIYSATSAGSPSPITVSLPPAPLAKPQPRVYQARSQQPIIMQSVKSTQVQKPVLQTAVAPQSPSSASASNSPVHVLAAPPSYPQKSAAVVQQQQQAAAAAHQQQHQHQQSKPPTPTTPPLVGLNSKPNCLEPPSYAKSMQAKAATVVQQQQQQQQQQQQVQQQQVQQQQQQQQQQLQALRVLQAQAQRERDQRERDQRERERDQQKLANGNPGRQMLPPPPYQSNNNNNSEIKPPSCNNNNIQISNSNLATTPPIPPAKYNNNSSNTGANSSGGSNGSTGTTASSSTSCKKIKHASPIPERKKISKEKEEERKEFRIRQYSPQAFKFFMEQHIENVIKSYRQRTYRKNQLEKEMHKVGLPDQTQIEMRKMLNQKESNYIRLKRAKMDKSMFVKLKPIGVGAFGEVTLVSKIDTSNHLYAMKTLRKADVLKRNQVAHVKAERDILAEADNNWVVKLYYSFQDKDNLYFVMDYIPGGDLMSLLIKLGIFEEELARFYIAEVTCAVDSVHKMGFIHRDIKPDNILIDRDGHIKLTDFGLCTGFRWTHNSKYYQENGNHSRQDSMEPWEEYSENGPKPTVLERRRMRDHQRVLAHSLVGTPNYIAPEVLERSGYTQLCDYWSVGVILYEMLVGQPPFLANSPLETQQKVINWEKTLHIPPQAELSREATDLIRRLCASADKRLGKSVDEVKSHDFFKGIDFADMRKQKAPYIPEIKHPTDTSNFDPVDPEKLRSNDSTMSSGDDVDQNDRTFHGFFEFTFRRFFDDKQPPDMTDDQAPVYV
Briefly: co-immunoprecipitation from S2 cells (anti-HA IP, anti-V5 blot). The source says: HA-tagged wildtype Yki (Yki, lane 1), a mutant Yki carrying point mutations in the WW domains (Yki^{W292A P295A W361A P364A}, abbreviated as Yki^WM in lane 2), or a truncated Yki containing only the N-terminal half of the protein (Yki^N, lane 3) were co-expressed with V5-tagged Wts. α-HA immunoprecipitates were probed with and α-V5 antibody to detect physical interaction between the Yki variants and Wts. Note that wildtype Yki, but not Yki^WM or Yki^N, could immunoprecipitate Wts.
HA-tagged Yki was constructed by adding a C-terminal HA epitope ([…]) to Yki using the pAc5.1/V5-HisB vector (Invitrogen). N-terminal V5-tagged Wts was constructed in the same vector by adding a V5 tag ([…]) between the first and second codon of Wts. Point mutations of Yki and Wts were introduced using the QuikChange site-directed mutagenesis kit (Stratagene). Myc-tagged Hpo and Flag-tagged Sav constructs have been described previously (Wu et al., 2003). The pGEX4T-1 vector was used to express a fusion of GST with full length Yki the GST-Yki preparation contained two Yki-related bands, with the upper band migrating at the expected molecular weight. It also contained a contaminating band (FIG. 6C). The Yki-related bands, but not the contaminating band, were diminished by thrombin, which cleaves the GST-Yki fusion at the junction of GST and Yki (data not shown). […]

The target of series [3] is GST-Tsc1 fusion (control substrate) [GST: P08515].
Chain of GST-Tsc1 fusion (control substrate) [GST: P08515] (P08515 whole entry, looked up, the tested form may be a part): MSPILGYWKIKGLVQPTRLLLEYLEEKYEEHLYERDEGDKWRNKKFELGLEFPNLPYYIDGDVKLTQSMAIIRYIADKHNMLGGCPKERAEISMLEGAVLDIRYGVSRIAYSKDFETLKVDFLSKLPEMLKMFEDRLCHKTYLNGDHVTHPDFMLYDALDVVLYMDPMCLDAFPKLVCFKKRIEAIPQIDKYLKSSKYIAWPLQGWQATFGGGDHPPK
The target in series [4] is T3, GST-Yki fusion protein (GST with full length Yki).
T3 chain: T1 sequence

V5-tagged kinase-dead Wts^K743R: in series [1], the “in vitro kinase activity (32P), kinase-dead Wts co-expressed with Hpo-Sav and immunoprecipitated” value was “a kinase dead mutation of Wts, WtsK^743R, completely abolished the in vitro kinase activity of Wts towards Yki”.

B1: HA-tagged Yki^W292A P295A W361A P364A (other)
chain: MCACLIAKIILCSFRLYTISAFYMLTTMSASSNTNSLIEKEIDDEDMLSPIKSNNLVVRVNQDTDDNLQALFDSVLNPGDAKRPLQLPLRMRKLPNSFFTPPAPSHSRANSADSTYDAGSQSSINIGNKASIVQQPDGQSPIAAIPQLQIQPSPQHSRLAIHHSRARSSPASLQQNYNVRARSDAAAANNPNANPSSQQQPAGPTFPENSAQEFPSGAPASSAIDLDAMNTCMSQDIPMSMQTVHKKQRSYDVISPIQLNRQLGALPPGWEQAKTNDGQIYYLNHTTKSTQAEDARIQYRQQQQILMAERIKQNDVLQTTKQTTTSTIANNLGPLPDGWEQAVTESGDLYFINHIDRTTSANDARMQSGLSVLDCPDNLVSSLQIEDNLCSNLFNDAQAIVNPPSSHKPDDLEWYKINYPYDVPDYA
notes: Expressed in S2 cells; also called Yki^WM; mutant Yki carrying point mutations in the WW domains
Consider B1, for which the binding result in series [2] is given as “no binding”.

B2: V5-tagged Wts (Warts) (protein)
chain: T2 sequence
On to B2, for which the “in vitro kinase activity (32P), Wts co-expressed with Hpo-Sav and immunoprecipitated” value is given as “Wts displayed specific kinase activity towards Yki (FIG. 6C, lane 2) but not a control substrate (FIG. 6C, lane 4)” in series [3] and “When co-expressed with Hpo-Sav, however, Wts displayed specific kinase activity towards Yki” in series [4].
